# Experimental data reported in EP4714976A1 (Sunshine Lake Pharma Co., Ltd., dated 2026).
# Columns and labels:
# [1] = target: T1, human FGFR2b (Kaixia Biotechnology, catalog number FGR-HM1BB) (human, UniProt P21802-3 22-378); test: BLI, antibody on AHC2 sensor
# T1 construct: extracellular domain; bought; also called hFGFR2b; human FGFR2b protein
# [2] = target: T2, FGFR2b on KATO III cells (human, UniProt P21802-3 22-822); test: flow cytometry, KATO III cells
# T2 construct: whole, on cells; also called KATO III cells that overexpress FGFR2b
# T2 sequence (P21802 other isoform, or with tags, fused parts or gaps): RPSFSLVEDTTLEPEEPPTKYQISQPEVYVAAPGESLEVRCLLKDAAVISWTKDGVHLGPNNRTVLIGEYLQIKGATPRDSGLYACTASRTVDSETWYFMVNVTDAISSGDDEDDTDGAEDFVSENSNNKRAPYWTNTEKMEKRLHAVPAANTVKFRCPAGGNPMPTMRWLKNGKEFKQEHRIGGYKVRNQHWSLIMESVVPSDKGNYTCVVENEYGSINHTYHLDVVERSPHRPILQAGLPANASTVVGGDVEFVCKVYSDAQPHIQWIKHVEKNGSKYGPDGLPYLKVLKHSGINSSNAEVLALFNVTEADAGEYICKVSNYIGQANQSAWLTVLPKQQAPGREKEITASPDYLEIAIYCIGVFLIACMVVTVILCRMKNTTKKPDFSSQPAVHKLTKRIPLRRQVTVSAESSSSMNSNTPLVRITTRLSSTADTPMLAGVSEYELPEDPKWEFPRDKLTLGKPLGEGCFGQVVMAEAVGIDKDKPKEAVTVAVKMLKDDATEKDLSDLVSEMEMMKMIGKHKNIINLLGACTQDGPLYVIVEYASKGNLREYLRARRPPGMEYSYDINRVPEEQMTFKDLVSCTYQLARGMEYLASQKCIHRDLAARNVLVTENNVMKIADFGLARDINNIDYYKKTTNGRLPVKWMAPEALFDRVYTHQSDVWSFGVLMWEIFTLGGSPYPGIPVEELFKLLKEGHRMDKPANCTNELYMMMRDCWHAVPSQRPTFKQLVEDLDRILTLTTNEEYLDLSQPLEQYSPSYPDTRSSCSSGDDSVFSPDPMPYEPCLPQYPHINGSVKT
# T1 sequence (P21802 other isoform, or with tags, fused parts or gaps): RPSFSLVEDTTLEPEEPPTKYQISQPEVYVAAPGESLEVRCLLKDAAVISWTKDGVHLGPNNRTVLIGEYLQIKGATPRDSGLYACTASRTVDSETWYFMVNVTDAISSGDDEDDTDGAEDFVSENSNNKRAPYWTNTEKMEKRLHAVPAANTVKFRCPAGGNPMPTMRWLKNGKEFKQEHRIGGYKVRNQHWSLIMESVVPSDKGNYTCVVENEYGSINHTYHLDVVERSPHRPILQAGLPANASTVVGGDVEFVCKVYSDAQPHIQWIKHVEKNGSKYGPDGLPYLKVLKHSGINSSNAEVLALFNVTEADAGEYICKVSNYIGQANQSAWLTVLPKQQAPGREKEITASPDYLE
Binder,Kd [1] [nM],koff [1] [s⁻¹],kon [1] [M⁻¹ s⁻¹],EC50 [2] [µg/mL]
"3H9-VH1-VL2 (antibody, human IgG1, kappa, humanized IgG1) heavy: not shown light: DIQMTQSPSSLSASVGDRVTITCRASENIYSNLAWYQQKPGKSPKLLVYAATNLADGVPSRFSGSGSGTDYTLTISSLQPEDFATYYCQHFWGTPYTFGGGTKVEIKRTVAAPSVFIFPPSDEQLKSGTASVVCLLNNFYPREAKVQWKVDNALQSGNSQESVTEQDSKDSTYSLSSTLTLSKADYEKHKVYACEVTHQGLSSPVTKSFNRGEC",5.37,0.00232,432000,0.0909
"3H9-VH0-VL2 (antibody, human IgG1, kappa, humanized IgG1) heavy: not shown light: DIQMTQSPSSLSASVGDRVTITCRASENIYSNLAWYQQKPGKSPKLLVYAATNLADGVPSRFSGSGSGTDYTLTISSLQPEDFATYYCQHFWGTPYTFGGGTKVEIKRTVAAPSVFIFPPSDEQLKSGTASVVCLLNNFYPREAKVQWKVDNALQSGNSQESVTEQDSKDSTYSLSSTLTLSKADYEKHKVYACEVTHQGLSSPVTKSFNRGEC",5.06,0.00186,367000,0.357
"3H9-VH0-VL1 (antibody, human IgG1, kappa, V domains shown, humanized IgG1) VH: QVQLVQSGAEVKKPGASVKVSCKASGYTFTFYNMHWVRQAPGQGLEWMGLIYPDNGDTSYNQKFKGRATLTADTSTSTVYMELSSLRSEDTAVYYCARGGLDYWGQGTTVTVSS VL: DIQMTQSPSSLSASVGDRVTITCRASENIYSNLAWYQQKPGKSPKLLIYAATNLADGVPSRFSGSGSGTDYTLTISSLQPEDFATYYCQHFWGTPYTFGGGTKVEIKR",3.55,0.00179,505000,0.18
"3H9-VH1-VL0 (antibody, human IgG1, kappa, V domains shown, humanized IgG1) VH: QVQLVQSGAEVKKPGASVKVSCKASGYTFTFYNMHWVRQAPGQGLEWIGLIYPDNGDTSYNQKFKGRATLTADTSTSTVYMELSSLRSEDTAVYYCARGGLDYWGQGTTVTVSS VL: DIQMTQSPSSLSASVGDRVTITCRASENIYSNLAWYQQKPGKAPKLLIYAATNLADGVPSRFSGSGSGTDFTLTISSLQPEDFATYYCQHFWGTPYTFGGGTKVEIKR",18.5,0.00433,234000,0.378
"3C7-VH1-VL2 (antibody, human IgG1, kappa, V domains shown, humanized IgG1) VH: QVQLVQSGAEVKKPGASVKVSCKASGYIFTNYYIHWVRQAPGQGLEWMGAIYPDNGDTSYNQRFKVRATLTADTSTSTVYMELSSLRSEDTAVYYCARAFTYWGQGTTVTVSS VL: DIQMTQSPSSLSASVGDRVTITCGASENIYGALNWYQRKPGKAPKLLIYGATNLADGVPSRFSGSGSGTDYTLTISSLQPEDFATYYCQNVLSTPYTFGGGTKLEIKR",2.71,0.00115,425000,0.601

# Stronger by Kd [1], values ahead:
Kd [1] [nM],koff [1] [s⁻¹],kon [1] [M⁻¹ s⁻¹],EC50 [2] [µg/mL],Binder
2.03,0.000884,435000,0.559,"3C7-VH2-VL2 (antibody, human IgG1, kappa, V domains shown, humanized IgG1) VH: QVQLVQSGAEVKKPGASVKVSCKASGYIFRNYYIHWVRQAPGQGLEWMGAIYPDNGDTSYNQRFKVRATLTADTSTSTVYMELSSLRSEDTAVYYCARAFTYWGQGTTVTVSS VL: DIQMTQSPSSLSASVGDRVTITCGASENIYGALNWYQRKPGKAPKLLIYGATNLADGVPSRFSGSGSGTDYTLTISSLQPEDFATYYCQNVLSTPYTFGGGTKLEIKR"
1.52,0.000424,279000,0.586,"FR21 (antibody, human IgG1, kappa, V domains shown, also called positive control antibody FR21; positive monoclonal antibody FR21) VH: QVQLVQSGAEVKKPGSSVKVSCKASGYIFTTYNVHWVRQAPGQGLEWIGSIYPDNGDTSYNQNFKGRATITADKSTSTAYMELSSLRSEDTAVYYCARGDFAYWGQGTLVTVSS VL: DIQMTQSPSSLSASVGDRVTITCKASQGVSNDVAWYQQKPGKAPKLLIYSASYRYTGVPSRFSGSGSGTDFTFTISSLQPEDIATYYCQQHSTTPYTFGQGTKLEIKR"
1.32,0.000752,570000,0.309,"3H9-VH2-VL1 (antibody, human IgG1, kappa, V domains shown, humanized IgG1) VH: QVQLVQSGAEVKKPGASVKVSCKASGYTFSFYNMHWVRQAPGQGLEWIGLIYPDNGDTSYNQKFKGRATLTADTSTSTVYMELSSLRSEDTAVYYCARGGLDYWGQGTTVTVSS VL: DIQMTQSPSSLSASVGDRVTITCRASENIYSNLAWYQQKPGKSPKLLIYAATNLADGVPSRFSGSGSGTDYTLTISSLQPEDFATYYCQHFWGTPYTFGGGTKVEIKR"
0.743,0.000399,536000,0.554,"3H9-VH3-VL3 (antibody, human IgG1, kappa, humanized IgG1) heavy: not shown light: DIQMTQSPSSLSASVGDRVTITCRASENIYSNLAWYQQKPGKSPKLLVYAATNLADGVPSRFSGSGSGTDYTLTISSLQPEDFATYYCQHFWGTPYTFGGGTKLEIKRTVAAPSVFIFPPSDEQLKSGTASVVCLLNNFYPREAKVQWKVDNALQSGNSQESVTEQDSKDSTYSLSSTLTLSKADYEKHKVYACEVTHQGLSSPVTKSFNRGEC"
0.709,0.000373,526000,0.231,"3H9-VH3-VL2 (antibody, human IgG1, kappa, humanized IgG1) heavy: not shown light: DIQMTQSPSSLSASVGDRVTITCRASENIYSNLAWYQQKPGKSPKLLVYAATNLADGVPSRFSGSGSGTDYTLTISSLQPEDFATYYCQHFWGTPYTFGGGTKVEIKRTVAAPSVFIFPPSDEQLKSGTASVVCLLNNFYPREAKVQWKVDNALQSGNSQESVTEQDSKDSTYSLSSTLTLSKADYEKHKVYACEVTHQGLSSPVTKSFNRGEC"
